B1: Cytochrome c-552, P04164 (parent)
chain: QADGAKIYAQCAGCHQQNGQGIPGAFPPLAGHVAEILAKEGGREYLILVLLYGLQGQIEVKGMKYNGVMSSFAQLKDEEIAAVLNHIATAWGDAKKVKGFKPFTAEEVKKLRAKKLTPQQVLAERKKLGLK

Variants of: B1
Details: Thermus thermophilus, pH 7, sodium phosphate 50 mM, transition: 2, reversible: yes, structure 1C52, whole UniProt chain shown; for denaturant midpoint (higher = more stable): 25 °C, GdnHCl; for Tm / change of melting temperature, mutant - wild type (higher = more stable) / heat capacity change of unfolding / unfolding enthalpy (calorimetric) / unfolding free energy: Thermal, CD

## QADGAKIYAQCAGCHQQNGQGIPGAFPPLAGHVAEILAKEGGREYLILVLLYGLQGQIEVKGMKYNGVHSSFAQLKDEEIAAVLNHIATAWGDAKKVKGFKPFTAEEVKKLRAKKLTPQQVLAERKKLGLK
absorbance
  denaturant midpoint (higher = more stable): 3.7 M
far-UV-CD
  denaturant midpoint (higher = more stable): 4 M
heme-CD
  denaturant midpoint (higher = more stable): 3.3 M
  Tm: 99 °C
  change of melting temperature, mutant - wild type (higher = more stable): 4 °C
  heat capacity change of unfolding: 0.51 kcal/mol/K
  unfolding enthalpy (calorimetric): 248 kJ/mol
  unfolding free energy: 34 kJ/mol

## QADGAKIYAQCAGCHQQNGQGIPGAFPPLAGHVAEILAKEGGREYLILVLLYGLQGQIEVKGMKYNGVASSFAQLKDEEIAAVLNHIATAWGDAKKVKGFKPFTAEEVKKLRAKKLTPQQVLAERKKLGLK
absorbance
  denaturant midpoint (higher = more stable): 4.2 M
far-UV-CD
  denaturant midpoint (higher = more stable): 4.7 M
heme-CD
  denaturant midpoint (higher = more stable): 4.5 M
  Tm: 93 °C
  change of melting temperature, mutant - wild type (higher = more stable): -2 °C
  heat capacity change of unfolding: 0.29 kcal/mol/K
  unfolding enthalpy (calorimetric): 118 kJ/mol
  unfolding free energy: 10 kJ/mol

— FireProtDB (doi:10.1021/bi300982v)
